Test results published in the DeepSol protein solubility set.

Assay: soluble on expression in E. coli; label from the status in PepcDB or PDB records

Row | Sequence | soluble on expression in E. coli
1 | LLEIDFAELTLEEIIGIGGFGKVYRAFWIGDEVAVKAARHDPDEDISQTIENVRQEAKLFAMLKHPNIIALRGVCLKEPNLCLVMEFARGGPLNRVLSGKRIPPDILVNWAVQIARGMNYLHDEAIVPIIHRDLKSSNILILQKVENGDLSNKILKITDFGLAREWHRTTKMSAAGAYAWMAPEVIRASMFSKGSDVWSYGVLLWELLTGEVPFRGIDGLAVAYGVAMNKLALPIPSTCPEPFAKLMEDCWNPDPHSRPSFTNILDQLTTI | soluble
2 | MKINYQELANNIKLWAKELGFQKVGICDVDLSQHEAALEQWLEAGYHGSMDWMARHGVMRARPDELHPGTIRVISARMDYLPPKAGFASNLKDPNQAYISRYALGRDYHKLIRNQLKKLGQKIEEEVEQLGYRPFVDSAPILERPLAEKAGLGWTGKHSLLLDKNAGSWFFLGELLVDIPLPVDTPVENQCGKCTACISSCPTNAILENGVIDARRCISYLTIENSGIIPEEFRSLMGNRIYGCDDCQLVCPWNREAEITQQADFHRRSSLGNSDLISLFSWDESTFLKNMEGSAIRRIGHIQWLRNLSIAMGNAPHSEAIISALQDRLGLDENLDIHIQWAIKQQSLVITSNRKEQRLIRIIEKGLPRDA | not soluble
3 | MSLKRFIDDHRDVHGVEPICKVLPIAPSTYYAHAARRSDPELRSARAKTDEALMPEIRRVWDENFQVYGVRQLWRQMRREQFAVARCTVQRLMKRQGLRGVIRGKAVRTTVSDAKAPCPLDHVNRQFTSDRPNALWVSDFTDVSTWQGWICVAFVIDVFARRIVGWKASPSMRTELVLDALEQALHARKPVGSERMIHHSDRGVQYVSIRYTERLAEAGLEPSVGSVSDSYDNALAETINGLCKAEVIHRKSSWRTREEVEWATLTWVDWFNNRRVLEPIGNIPPAEAEANYYLISPDLQLQHLRAYREGHHHHHH | soluble
4 | MGHHHHHHSHKNMKPIGCNAVQLTGGEPTLRDDLIDIIRMIKEEGYDHIQLNTNGIRLAEDPDFALRVRVAGVNTVYLSFDGVDEKTNPKNHHEIPKILENCRRAQLGLVLVPTVIKGVNDHQLGDIIRFAAENIDIVRGVNFQPVSLVGSMPRKEREQFRITIPDCIKAIEEQTNGEIGREDFYPVPSVVPISRFVEALTGQPQYELTTHFACGMATYIFKDNGRLIPITRFVDVEGLFEF | not soluble
5 | MTEAPKIEKSFNEISDMEQIFVEHHSFGIVSLSSISESLKRLELSADLNIQELLAIKKVLQSSSDMIHFYSDLDNVSFQSLDRLFENLEQFPNLQGSFQAINDGGFLEHFASPELERIRRQLTNSERRVRQILQDMLKEKAELLSENLIASRSGRSVLPVKNTYRNRISGVVHDISSSGSTVYIEPRAVVTLNEEITQLRADERHEESRILHAFSDLLRPHVATIRNNAWILGHLDFVRAKYLFMSDNKATIPEISNDSTLALINVRHPLLSNPVANDLHFDQDLTAIVITGPNTGGKTIMLKTLGLAQLMGQSGLPVLADKGSKIAVFNNIFADIGDEQSIEQSLSTFSSHMTHIVSILNEADHNSLVLFDELGAGTDPQEGASLAMAILEHLRLSNIKTMATTHYPELKAYGIETNFVENASMEFDAETLSPTYRFMQGVPGRSNAFEIASRLGLAPFIVKQAKQMTDSDSDVNRIIEQLEAQTLETRRRLDHIKEVEQENLKFNRAVKKLYNEFSHERDKELEKIYQEAQEIVDMALNESDTILKKLNDKSQLKPHEIIDAKAQIKKLAPQVDLSKNKVLNKAKKIKAARAPRIGDDIIVTSYGQRGTLTSQLKDGRWEAQVGIIKMTLTQDEFTLVRVQEEQKVKSKQINVVKKADSSGPRARLDLRGKRYEEAMQELDNFIDQALLNNMGQVDIIHGIGTGVIREGVTKYLRRNKHVKHFAYAPQNAGGSGATIVTLGLEHHHHHH | not soluble
6 | MGSDKIHHHHHHMLRLSALGDVCNLVPTIRVLQRLWPDARITWIIGKGEHSLLAGLSGVEFIVYDKATGLAGMREVWRQLGDTRFDVLLHMQQALRASVLSLGLKADLRIGYDKARAKDWQHWFTHRQLTPHPRAHVLDSFLDFARLLGGAERVDAEPLRWDLAIPDTAYQEAARVTGDAPYIVISPCANPRLRNFRNWSAEGYAAVISHAWQEHGLRTVMTGGGSTQEQEMGARIRALCAEEAVIDAIGATSLKGLLAMLDRARMVIAPDSGPVHMANALRTPTLGLYATTNPERAAPYCWRDFVVDRYPDAVRRYLHKSPEAITWGARVRHPDAMSLIHADDVIAQFDALLNAAPSASSRPEPDHET | not soluble
7 | MSHVFQIHSSQYKSPSQIPQGKVLVVGGGNSGMQIAVEFAKTHEVTMSISHPLTFLPLHFFRKSIFNWLEKLGLLYAEVSTKRGKWFQKRKDPIFGFEGKELIRNGAIQLQEKVVSASENNIMFQNGETYSAESIIWSTGFIQNYNWIEIEKVVNENGLPNHIKGISPVRGLYYIGLEHHHHHH | soluble
8 | QGAVRKATAAEIAALPRQKVELVDPPFVHAHSQVAEGGPKVVEFTMVIEEKKIVIDDAGTEVHAMAFNGTVPGPLMVVHQDDYLELTLINPETNTLMHNIDFHAATGALGGGGLTEINPGEKTILRFKATKPGVFVYHCAPPGMVPWHVVSGENGAIMVLPREGLHDGKGKALTYDKIYYVGEQDFYVPRDENGKYKKYEAPGDAYEDTVKVMRTLTPTHVVFNGAVGALTGDKAMTAAVGEKVLIVHSQANRDTRPHLIGGHGDYVWATGKFNTPPDVDQETWFIPGGAAGAAFYTFQQPGIYAYVNHNLIEAFELGAAAHFKVTGEWNDDLMTSVLAPSGT | soluble
9 | MSLNILVIGTGAIGSFYGALLAKTGHCVSVVARSDYETVKAKGIRIRSATLGDYTFRPAAVVRSAAELETKPDCTLLCIKVVEGADRVGLLRDAVAPDTGIVLISNGIDIEPEVAAAFPDNEVISGLAFIGVTRTAPGEIWHQAYGRLMLGNYPGGVSERVKTLAAAFEEAGIDGIATENITTARWQKCVWNAAFNPLSVLSGGLDTLDILSTQEGFVRAIMQEIRAVAAANGHPLPEDIVEKNVASTYKMPPYKTSMLVDFEAGQPMETEVILGNAVRAGRRTRVAIPHLESVYALMKLLELRTSKSLWGNEGHHHHHH | soluble
10 | MGNIGSPPKFDEYPNGNEEPRRVLRLNVYFDNPVQNKDGAYDDRGGFWAPVDWWHRDAERWATLFAKGMRVAVRGHLERDDWTDGDGEPHTTYKVDARSVGILPYRLDAVHLSPLEHHHHHH | not soluble
11 | MQTRATPAPAAPLERFNAAPAEEAAGTLLACLHSRAWADRLVAHRPYPDLPALLAAADEAAYDLSSDDLSEALAAETLPALPEDTYAAAHTALSAAHAAYESRFGHVFVISLDGLSPEETLNHVLAAIRSRLANDPDEERLVASEELRRLAGGRVRRLLGARGTARPATDDPHPANHTKPPPPLEHHHHHH | soluble
12 | MGHHHHHHSHMENKGVVALYHYFYGPALIPYFSHTHNPQRSPDFSERQRRREITLTVDGFVPPSSTEDLGDGFYSYAWTNQQVINPGEYLVCHLEGRDINVINGGFTPRDTAPLYAVQAFQDEETNGSLSFIILCKPKEPYRFI | not soluble
13 | MVSRKRRAAQIESSRKGVASIRARCDMEASCSSSQENEASRASTSQCSSPKNLKMENVTILPKTLKLIHDDPKSQVIVSIQFEIEDTKKKISAAILNFNISKKANNAIRSERKRIVATILKTRKHVERFRRLWKKEKKKKEHSEILYKKSQLSKQETIAKFPPMFR | not soluble
14 | MGSDKIHHHHHHMGNRTRTIAGKDITRSVADALQYISYYHPPDYIRSLSQAYAREQSPAAKNAIGQILLNSRMAAFGRRPICQDTGLVVVFAKVGMETRIKSTISFADLVNEGVRQAYLDPDNPLRASIVADPLAGRVNTRDNTPAVVHVDLVQGNQIEITIAAKGGGSENKARFTTLNPSASVSDWVIDTVSTLGSGWCPPGLISVGIGGSAEKAMLLAKEAMNKPIDMSELIARGPSSAEEALRIELYERINALGIGAQGLGGLTTVVDVKVATYPTHAASKPVALIPQCAANRHLKFTLDGSGPIRVQPPDLCEWPDIGTDELSPAGVRRVNLDALTKEETASWRCGETLLLSGKMLTGRDAAHKRMVELIDAGKPLPFDLQGRVIYYVGPVRAVRDEVVGPAGPTTSSRLDDFTDKVLAETGLFAMVGKAERGRAAIESIVRHKTPYLIAVGGAAYLISKSIKSARLIAFEDLGMEAVYEFEVQDMPVIMAVDVDGNSIHNSGPLEWRKRMAADSIARNIGV | not soluble
15 | MGSDKIHHHHHHMCVKKGESSITSLVSAFGRAYHSEFDSPKIFDDYVAKEFISPKERSDIETNMVQGIHFFNTDIAEQFQDNPKEILKWITQVQLSPTPLARAAYCERVLLHEITLGAKQYVILGAGLDTFSFRHRELENKIEIFEVDHPSTQQFKKERIKEAELEVPNNLHFVSMDFTKGFSYEQLRNEGFEHKKTFFSLLGVSYYLTKEELASLIECLFEMVPEGSSIVFDYPDENLFTEKGLSNRVENMVKMAAVGGEPMKSCYSYAEMEALLEKAGLLIYEHLSPEDINAFYFEGRNDYLKAFETVHYVHAVKK | not soluble
16 | MGSDKIHHHHHHMQWDVIVVGGGPSGLTMAAELAGSGVRTLVLERRTDGVQSRAGTIMPRVLELLDARGIAHRFIEKTRAISNYPFRPSHIWAGFHPINWKYLESRFGFTLGLPQNHTEEILGAWAAECGAEIRTGMEVLDVRQSDDAVEIDVLDVAGTVATLHARYAVGADGGRSVVRNRLGLPFEGHSGTFRGIVIDAELHAPWPGGRVNVDNEMGWVRGYVFGDGVTRFNIVHRDRRHAPKDEPVTLEEALQCIRDVHGTDYGIRAFRWASRFDDQMRMVSSLRKGRVFLVGESARIHYPASGVGMNFCLQDAFNLGWKLANVINGVADPSTLDTYDAERLPVMHALLESVKAQCALQFNFEPDAVALKRRMQEHIIPLPDVQRKLVLELSGLEAPYPRAPSSHSLTGQRCPDLDLLLPDGSAVAVTQTLRERRFVLLDLEGFSRQFAALNLSGWPVTVLAARAARIPASMEGVKALLLRPDGYVAWAATDVAQAAEAEAQLAKWLKR | not soluble
17 | MKAVGFLLLLTILTLAYAKKSGDVTELQIGVKYKPQKCDLQAHKGDKIKVHYRGKLTDGTVFDSSFERGDPIEFELGTGQVIPGWDQGLLGACVGEKRKLKIPSKLGYGDNGSPPKIPGGATLIFDTELVAVNGEPSSEAKSKNEL | soluble
18 | MAHHHHHHMPGKRKRVQGDDNTESQASAVPQGDGQTRARPESHGDTNQPAATHIRVEEPRQPQWTLESRLEDVLLEGKERITNMRLNDFLRNYFDGRGVEEFNENVYMKYFLISPNEFIKDEVLLSTIKVSPPYQELKKEREEFYMLLEASNKLKKECIITLEQWSNFERKDTVTPLARAQINTAFSRVLREERWEAEERQRRERQEMGIDVSTRIKYAVLKGRVRVNKMKLNDFLTMELDGRGVGSANWNFLLRDFFICSTKYIYDVFLLLKIQASDRYNTMERAVRDEMDMEEDVNRLYKNGVDNLLKWLVAAAEVKANVHEVTKRFLDAAAEEAREPKKSSAPMKLEGCYESVYNASWHHFVEVPDGEGTVMEVREGEPPRSWTYKAVGDTLERNDGVEQSGAPRPRLMVLTSDKGWPYTWRRMDPLVAAM | not soluble
19 | MARIAGVEIPRNKRVDVALTYIYGIGKARAKEALEKTGINPATRVKDLTEAEVVRLREYVENTWKLEGELRAEVAANIKRLMDIGCYRGLRHRRGLPVRGQRTRTNARTRKGPRKTVAGKKKAPRK | soluble
20 | SKIFDFVKPGVITGDDVQKVFQVAKENNFALPAVNCVGTDSINAVLETAAKVKAPVIVQFSNGGASFIAGKGVKSDVPQGAAILGAISGAHHVHQMAEHYGVPVILHTDHCAKKLLPWIDGLLDAGEKHFAATGKPLFSSHMIDLSEESLQENIEICSKYLERMSKIGMTLEIELGCTGGEEDGVDNSHMDASALYTQPEDVDYAYTELSKISPRFTIAASFGNVHGVYKAGNVVLTPTILRDSQEYVSKKHNLPHNSLNFVFHGGSGSTAQEIKDSVSYGVVKMNIDTDTQWATWEGVLNYYKANEAYLQGQLGNPKGEDQPNKKYYDPRVWLRAGQTSMIARLEKAFQELNAIDVL | soluble
